The source of these data is article PMC9758440.

For the assay, the target named is N-terminal SNAP-tagged FGFR1c on the surface of stable COS7 cells (human) (UniProt P11362). As to the kind of experiment: FRET or BRET. On the technique in general: In BRET a luciferase serves as donor, and the signal depends on an acceptor being close.

Regarding “N-terminal SNAP-tagged FGFR1c on the surface of stable COS7 cells (from UniProt P11362 22-822) (receptor)”, the fold increase of the TR-FRET signal with FGF2 worked out at 2.8 fold.
